# Literature values in publication PMC7876049.
# Biological target: CYK4 (Homo sapiens) (UniProt Q9H0H5)
# Sequence of UniProt Q9H0H5 (Q9H0H5 whole entry): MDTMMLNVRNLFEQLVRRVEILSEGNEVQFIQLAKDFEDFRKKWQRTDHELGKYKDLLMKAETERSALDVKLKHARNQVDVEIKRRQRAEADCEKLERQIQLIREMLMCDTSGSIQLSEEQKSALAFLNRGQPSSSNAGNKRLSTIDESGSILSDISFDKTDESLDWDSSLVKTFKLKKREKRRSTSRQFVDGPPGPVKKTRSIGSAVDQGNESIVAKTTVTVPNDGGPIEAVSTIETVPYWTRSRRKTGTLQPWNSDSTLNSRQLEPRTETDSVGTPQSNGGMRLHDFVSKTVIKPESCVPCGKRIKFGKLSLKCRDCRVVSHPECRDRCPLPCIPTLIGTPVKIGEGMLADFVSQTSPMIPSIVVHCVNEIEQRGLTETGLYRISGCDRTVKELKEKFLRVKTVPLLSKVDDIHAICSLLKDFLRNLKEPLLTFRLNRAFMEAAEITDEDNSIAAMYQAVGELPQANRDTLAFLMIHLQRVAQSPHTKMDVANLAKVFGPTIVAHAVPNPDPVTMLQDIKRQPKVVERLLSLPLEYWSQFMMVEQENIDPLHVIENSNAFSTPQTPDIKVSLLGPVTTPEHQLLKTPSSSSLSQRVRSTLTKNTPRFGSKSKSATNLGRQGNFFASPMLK
substance,measurement,value
MKLP1 (from UniProt Q02241),Kd,7 nM
